Experimental data as given in PMC3761943 (Cell, 2013).
Values belong to the binder of their own block, whether it stands above or below them.

Columns and labels:
[1] = target: T1, kinesin-4ΔN (human kinesin-4, aa 733-1232) (human, UniProt O95239 733-1232); assay: pull-down
T1 sequence (looked up): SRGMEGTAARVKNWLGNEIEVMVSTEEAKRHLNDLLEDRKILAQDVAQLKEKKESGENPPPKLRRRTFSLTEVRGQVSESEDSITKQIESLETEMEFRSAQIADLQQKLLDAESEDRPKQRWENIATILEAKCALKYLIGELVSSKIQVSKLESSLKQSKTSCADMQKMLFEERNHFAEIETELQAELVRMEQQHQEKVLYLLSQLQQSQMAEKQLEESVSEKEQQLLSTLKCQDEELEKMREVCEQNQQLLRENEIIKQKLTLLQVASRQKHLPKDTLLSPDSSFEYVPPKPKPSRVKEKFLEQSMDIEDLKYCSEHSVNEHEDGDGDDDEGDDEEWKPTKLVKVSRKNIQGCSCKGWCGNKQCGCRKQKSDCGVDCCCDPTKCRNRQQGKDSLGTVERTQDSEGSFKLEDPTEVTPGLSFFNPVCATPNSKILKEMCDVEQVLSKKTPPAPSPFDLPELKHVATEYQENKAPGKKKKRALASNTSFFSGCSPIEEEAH

[2] = target: T2, kinesin-4-GFP (human full-length kinesin-4, GFP-labeled) (human), O95239; assay: single-molecule fluorescence intensity analysis; conditions: remark: other sources report otherwise
T2 chain: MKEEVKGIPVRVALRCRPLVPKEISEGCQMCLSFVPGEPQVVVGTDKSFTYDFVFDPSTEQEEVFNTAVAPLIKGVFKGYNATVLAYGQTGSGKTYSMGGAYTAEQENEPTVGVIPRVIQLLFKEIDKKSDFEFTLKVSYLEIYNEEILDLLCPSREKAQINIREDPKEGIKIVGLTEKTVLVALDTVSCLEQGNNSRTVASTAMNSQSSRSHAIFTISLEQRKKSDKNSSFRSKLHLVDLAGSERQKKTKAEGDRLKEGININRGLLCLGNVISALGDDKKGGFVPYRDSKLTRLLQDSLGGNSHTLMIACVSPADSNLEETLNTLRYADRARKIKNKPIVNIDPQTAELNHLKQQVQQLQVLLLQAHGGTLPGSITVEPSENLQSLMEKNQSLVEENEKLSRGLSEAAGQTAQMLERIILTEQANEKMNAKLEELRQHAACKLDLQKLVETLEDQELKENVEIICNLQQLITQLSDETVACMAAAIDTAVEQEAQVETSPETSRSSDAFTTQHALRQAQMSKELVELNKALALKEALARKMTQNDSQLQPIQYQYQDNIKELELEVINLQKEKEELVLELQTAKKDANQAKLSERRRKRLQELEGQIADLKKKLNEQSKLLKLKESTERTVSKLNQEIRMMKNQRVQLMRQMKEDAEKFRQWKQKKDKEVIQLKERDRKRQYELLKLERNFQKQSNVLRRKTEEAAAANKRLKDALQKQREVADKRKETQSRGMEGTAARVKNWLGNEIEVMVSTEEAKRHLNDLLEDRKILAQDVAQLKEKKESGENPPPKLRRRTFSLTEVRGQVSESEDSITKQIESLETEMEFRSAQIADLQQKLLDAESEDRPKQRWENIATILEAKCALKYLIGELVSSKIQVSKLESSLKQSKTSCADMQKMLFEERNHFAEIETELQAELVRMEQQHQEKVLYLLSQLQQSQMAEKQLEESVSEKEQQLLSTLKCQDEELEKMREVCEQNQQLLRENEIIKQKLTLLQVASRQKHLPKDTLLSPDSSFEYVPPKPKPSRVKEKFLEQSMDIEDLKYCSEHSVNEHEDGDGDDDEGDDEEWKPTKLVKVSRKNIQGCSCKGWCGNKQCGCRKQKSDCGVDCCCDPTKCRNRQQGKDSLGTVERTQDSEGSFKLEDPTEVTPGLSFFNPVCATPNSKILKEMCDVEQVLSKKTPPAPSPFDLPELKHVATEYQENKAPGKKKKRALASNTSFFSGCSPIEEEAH

[3] = target: T3, kinesin-4 (human full-length, unlabeled) (human, UniProt O95239 1-1232); assay: TIRF microscopy, end-tag formation on immobilized microtubules
T3 sequence (looked up): T2 chain

Kd [1]: 300 ± 40 nM
B1: PRC1NSΔC4 (human PRC1, aa 1-231) (domain or fragment, UniProt O43663 1-231, looked up)
chain: MRRSEVLAEESIVCLQKALNHLREIWELIGIPEDQRLQRTEVVKKHIKELLDMMIAEEESLKERLIKSISVCQKELNTLCSELHVEPFQEEGETTILQLEKDLRTQVELMRKQKKERKQELKLLQEQDQELCEILCMPHYDIDSASVPSLEELNQFRQHVTTLRETKASRREEFVSIKRQIILCMEALDHTPDTSFERDVVCEDEDAFCLSLENIATLQKLLRQLEMQKSQ

Kd [1]: 1200 ± 400 nM
B2: PRC1NSΔC3 (human PRC1, aa 1-168) (domain or fragment, UniProt O43663 1-168, looked up)
chain: MRRSEVLAEESIVCLQKALNHLREIWELIGIPEDQRLQRTEVVKKHIKELLDMMIAEEESLKERLIKSISVCQKELNTLCSELHVEPFQEEGETTILQLEKDLRTQVELMRKQKKERKQELKLLQEQDQELCEILCMPHYDIDSASVPSLEELNQFRQHVTTLRETKA

Kd [1]: 1600 ± 110 nM
B3: PRC1ΔN2SΔC (human PRC1, aa 41-486) (domain or fragment, UniProt O43663 41-486, looked up)
chain: EVVKKHIKELLDMMIAEEESLKERLIKSISVCQKELNTLCSELHVEPFQEEGETTILQLEKDLRTQVELMRKQKKERKQELKLLQEQDQELCEILCMPHYDIDSASVPSLEELNQFRQHVTTLRETKASRREEFVSIKRQIILCMEALDHTPDTSFERDVVCEDEDAFCLSLENIATLQKLLRQLEMQKSQNEAVCEGLRTQIRELWDRLQIPEEEREAVATIMSGSKAKVRKALQLEVDRLEELKMQNMKKVIEAIRVELVQYWDQCFYSQEQRQAFAPFCAEDYTESLLQLHDAEIVRLKNYYEVHKELFEGVQKWEETWRLFLEFERKASDPNRFTNRGGNLLKEEKQRAKLQKMLPKLEEELKARIELWEQEHSKAFMVNGQKFMEYVAEQWEMHRLEKERAKQERQLKNKKQTETEMLYGSAPRTPSKRRGLAPNTPGKAR

Kd [1]: 300 ± 60 nM
B4: PRC1NSΔC5 (human PRC1, aa 1-303) (domain or fragment, UniProt O43663 1-303, looked up)
chain: MRRSEVLAEESIVCLQKALNHLREIWELIGIPEDQRLQRTEVVKKHIKELLDMMIAEEESLKERLIKSISVCQKELNTLCSELHVEPFQEEGETTILQLEKDLRTQVELMRKQKKERKQELKLLQEQDQELCEILCMPHYDIDSASVPSLEELNQFRQHVTTLRETKASRREEFVSIKRQIILCMEALDHTPDTSFERDVVCEDEDAFCLSLENIATLQKLLRQLEMQKSQNEAVCEGLRTQIRELWDRLQIPEEEREAVATIMSGSKAKVRKALQLEVDRLEELKMQNMKKVIEAIRVELVQ

Kd [1]: 2300 ± 600 nM
B5: PRC1NSΔC2 (human PRC1, aa 1-117) (domain or fragment, UniProt O43663 1-117, looked up)
chain: MRRSEVLAEESIVCLQKALNHLREIWELIGIPEDQRLQRTEVVKKHIKELLDMMIAEEESLKERLIKSISVCQKELNTLCSELHVEPFQEEGETTILQLEKDLRTQVELMRKQKKER

stoichiometry N [2]: 2
B6: kinesin-4-GFP (human full-length kinesin-4, GFP-labeled), O95239 1-1232 (natural protein)
chain: T2 chain

Kd [1]: 300 ± 30 nM
B7: PRC1NSΔC (human PRC1, aa 1-486) (domain or fragment, UniProt O43663 1-486, looked up)
chain: MRRSEVLAEESIVCLQKALNHLREIWELIGIPEDQRLQRTEVVKKHIKELLDMMIAEEESLKERLIKSISVCQKELNTLCSELHVEPFQEEGETTILQLEKDLRTQVELMRKQKKERKQELKLLQEQDQELCEILCMPHYDIDSASVPSLEELNQFRQHVTTLRETKASRREEFVSIKRQIILCMEALDHTPDTSFERDVVCEDEDAFCLSLENIATLQKLLRQLEMQKSQNEAVCEGLRTQIRELWDRLQIPEEEREAVATIMSGSKAKVRKALQLEVDRLEELKMQNMKKVIEAIRVELVQYWDQCFYSQEQRQAFAPFCAEDYTESLLQLHDAEIVRLKNYYEVHKELFEGVQKWEETWRLFLEFERKASDPNRFTNRGGNLLKEEKQRAKLQKMLPKLEEELKARIELWEQEHSKAFMVNGQKFMEYVAEQWEMHRLEKERAKQERQLKNKKQTETEMLYGSAPRTPSKRRGLAPNTPGKAR

binding result [3]: binds
B8: GFP-PRC1 (human full-length PRC1, aa 1-620, GFP-labeled) (natural protein, UniProt O43663 1-620, looked up)
chain: MRRSEVLAEESIVCLQKALNHLREIWELIGIPEDQRLQRTEVVKKHIKELLDMMIAEEESLKERLIKSISVCQKELNTLCSELHVEPFQEEGETTILQLEKDLRTQVELMRKQKKERKQELKLLQEQDQELCEILCMPHYDIDSASVPSLEELNQFRQHVTTLRETKASRREEFVSIKRQIILCMEALDHTPDTSFERDVVCEDEDAFCLSLENIATLQKLLRQLEMQKSQNEAVCEGLRTQIRELWDRLQIPEEEREAVATIMSGSKAKVRKALQLEVDRLEELKMQNMKKVIEAIRVELVQYWDQCFYSQEQRQAFAPFCAEDYTESLLQLHDAEIVRLKNYYEVHKELFEGVQKWEETWRLFLEFERKASDPNRFTNRGGNLLKEEKQRAKLQKMLPKLEEELKARIELWEQEHSKAFMVNGQKFMEYVAEQWEMHRLEKERAKQERQLKNKKQTETEMLYGSAPRTPSKRRGLAPNTPGKARKLNTTTMSNATANSSIRPIFGGTVYHSPVSRLPPSGSKPVAASTCSGKKTPRTGRHGANKENLELNGSILSGGYPGSAPLQRNFSINSVASTYSEFAKDPSLSDSSTVGLQRELSKASKSDATSGILNSTNIQS
